Here are results for 41 sequences from the nanobody polyreactivity screen of Harvey et al. (2022).

This data set in a line: yeast display, Sf9 membrane polyspecificity reagent, FACS + sequencing; frameworks hold sequencing errors. The essentials: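 In a synthetic yeast display library (Saccharomyces cerevisiae BJ5465), nanobody expression was induced with galactose for 36–48 hours. FACS gates were set low and high (top ~1%) using anti-HA fluorescence for expression and streptavidin fluorescence for binding of the Sf9 membrane reagent. Each polyreactivity label is drawn from the gate of origin.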
As for “QVQLVESGGGLVQAGGSLRLSCAASGSIFLINAMGWYRPAPGKERELVAAITWSGGRTYYADSVKGRFTISRDNAKNTVYLQMNSLKPEDTAVYYCATRKRRSRPPTYDYWGQGTQVTVSS”, the “polyreactivity (PSR sort gate)” value was “high polyreactivity”.

Turning to “QVQLVESGGGLVQAGGSLRLSCAASGSIFLIYAMGWYRQAPGKERELVATINRGDNTYYADSVKGRFTISRDNAKNTVYLQMNSLKPEDTAVYYCAARAYDLGYAGYDYWGQGTQVTVSS”, the “polyreactivity (PSR sort gate)” value is “low polyreactivity”.

Turning to “QVQLVESGGGLVQAGGSLRLSCAASGSIFLIYARGSYRQAPGKERELVAAISGRVGSTYYADSVKGRFTISRDNAINTVYLQMNSLKPEDTAVYYCAARNSYGNWRYYYWGQGTQVTVSS”, the “polyreactivity (PSR sort gate)” value is recorded as “high polyreactivity”.

“QVQLVESGGGLVQAGGSLRLSCAASGSIFLKYVMGWYRQAPGKERELVAAISFRSGSTYYADSVKGRFTISRDNAKNTVYLQMNSLKPEDTAVYYCAADAWRSYGYRAYDYWGQGTQVTVSS”: the “polyreactivity (PSR sort gate)” value is recorded as “high polyreactivity”.

For the sequence “QVQLVESGGGLVQAGGSLRLSCAASGSIFLLYAMGWYSQAPGKVRELVAAISRSGDSTHYADSVKGRFTISRDNAKNTVYLQMNSLKPEDTAVYYCAADGYDPYGGLYDYWGQGTQVTVSS”, the “polyreactivity (PSR sort gate)” value is on record as “low polyreactivity”.

Consider “QVQLVESGGGLVQAGGSLRLSCAASGSIFLQNAMGWYRQAPGKERELVAAITNGGSTNYADSVKGRFTISRDNAKHTVYLQLNSLKPEDTAVYYCAAYPLYTGSYDRGGYWGQGTQVTVSS”, for which the “polyreactivity (PSR sort gate)” value is on record as “low polyreactivity”.

Take “QVQLVESGGGLVQAGGSLRLSCAASGSIFLQNAMGWYRQAPGKERELVAAITNGGSTNYADSVKGRFTISRDNAKNTVYLQMNSLKPEDTAVYYCAAYPLYTGSYDRGGYWGQGTQVTVSS”: the “polyreactivity (PSR sort gate)” value is recorded as “low polyreactivity”.

Consider “QVQLVESGGGLVQAGGSLRLSCAASGSIFLRNAMGWSRQAPGKERELVAAISRSGGRTYYADSVKGRFTISRDNAKNTVYLQMNSLKPEDTAVYYCAADWADKYTGRYDYWGQGTQVTVSS”, for which the “polyreactivity (PSR sort gate)” value was “high polyreactivity”.

In the case of “QVQLVESGGGLVQAGGSLRLSCAASGSIFLSNAMGWYRQAPGKERELVAAISRRGASTYYADSVKGRFTISRDNAKNTVYFQMNSLKPEDTAVYYCAALSYSAYGYNYWGQGTQVTVSS”, the “polyreactivity (PSR sort gate)” value is given as “high polyreactivity”.

“QVQLVESGGGLVQAGGSLRLSCAASGSIFLTNVMGWYRQAPGKERELVAAISSGGNTYYADSVKGRFTISRDNAKNTVYLQMNSLKPEDTAVYYCAVRYRYDYWGQGTQVTVSS”: the “polyreactivity (PSR sort gate)” value was “high polyreactivity”.

For “QVQLVESGGGLVQAGGSLRLSCAASGSIFLTYTMGWYRQAPGKERELVAGISSRGGGTYYADSVKGRFTISRDNAKNTVYLQMNSLKPEDTAVYYCAAAIGYPHYWGRRKFYYWGQGTQVTVSS”, the “polyreactivity (PSR sort gate)” value was “low polyreactivity”.

Take “QVQLVESGGGLVQAGGSLRLSCAASGSIFLVNAMGWYRQAPGERKELVAAISWSSGSTYYADSVKGRFTNSRDNAKNTVYLQMNSLKPEDTAVYYCAKRSSITYRYDYWGQGTQVTVSS”: the “polyreactivity (PSR sort gate)” value was “high polyreactivity”.

Take “QVQLVESGGGLVQAGGSLRLSCAASGSIFLVYALGWYRQAPGKERELVATITRGGGTYYADSVKGRFTISGDNAKNTVYLQMNSLKPEDTAVSYCAYPLSRTWGNYLAWSYPRDDSWGQGTQVTVSS”: the “polyreactivity (PSR sort gate)” value is recorded as “high polyreactivity”.

With “QVQLVESGGGLVQAGGSLRLSCAASGSIFLVYAMGWYRQAPGKERELVAAIRWSGGSTYYADSVKGRFTISRDNAKNTVYLQMNSLKPEDTAVYYCNAGESYSVKGGPYDSDYWGQGTQVTVSS”, the “polyreactivity (PSR sort gate)” value is “low polyreactivity”.

Consider “QVQLVESGGGLVQAGGSLRLSCAASGSIFLWNAKGWYRQAPGKERELVAAISSGTSTNYADSVKGRFTISRDNAKNTVYLQMNSLKPEDTAVYYCAARGRKNQRRYGYWGQGTQVTVSS”, for which the “polyreactivity (PSR sort gate)” value was “low polyreactivity”.

Consider “QVQLVESGGGLVQAGGSLRLSCAASGSIFLYNAMGWYRQAPGKERELVADISWSGGSTYYADSVKGRFTISRDNAKNTVYLQMNSLKPEDTAVYYCNAVVYWFSTSYVYTYDYWGQGTQVTVSS”, for which the “polyreactivity (PSR sort gate)” value is reported as “high polyreactivity”.

Regarding “QVQLVESGGGLVQAGGSLRLSCAASGSIFLYNTMGWYRQAPGKERELVAAITSGGNTNYADSVKGRFTISRDNAKNTVYLQMHSLKPEDTAVYYCNVDLKAWLPDGGSVDYWGQGTQVTVSS”, the “polyreactivity (PSR sort gate)” value was “low polyreactivity”.

In the case of “QVQLVESGGGLVQAGGSLRLSCAASGSIFLYNTMGWYRQAPGKERELVAAITYSGGSTYYADSVKGRFTISRDNAKNTVYLQMNSLKPEDTAVYYCAARRLPRKERKLYYWGQGTQVTVSS”, the “polyreactivity (PSR sort gate)” value is listed as “high polyreactivity”.

Turning to “QVQLVESGGGLVQAGGSLRLSCAASGSIFLYYAMGWYIQATGKERELVATITSGGRTSYADSVKGRFTISRDNAKNTVYLKMNSLKPEDTAVYYCAGRYGWFTPYDYWGQGTQVTVSS”, the “polyreactivity (PSR sort gate)” value was “high polyreactivity”.

Consider “QVQLVESGGGLVQAGGSLRLSCAASGSIFLYYAMGWYRQAPGKERELVAAITGGGGTNYADSVKGRFTISRDNAKNTVYLQMNSLKPEDTAVYYCAADPSGQFPYSYYNYDYDYWGQGTQVTVSS”, for which the “polyreactivity (PSR sort gate)” value is “low polyreactivity”.

For “QVQLVESGGGLVQAGGSLRLSCAASGSIFLYYTMGWYRQAPGKERELVAAITWGGGTTYYADSVKGRFTISRDNAKNTVYLQMNSLKPEDTAVYYCAAEGSYPRMDYWGQGTQVTVSS”, the “polyreactivity (PSR sort gate)” value is “low polyreactivity”.

Consider “QVQLVESGGGLVQAGGSLRLSCAASGSIFLYYTMGWYRQAPGKEREMVAAITSGSSTNYADSVKGRFTISRDNAKNTVYLQMNSLKPEDTAVYYCATQYTLSYPSIDFDYWGQGTQVNVSS”, for which the “polyreactivity (PSR sort gate)” value is “low polyreactivity”.

In the case of “QVQLVESGGGLVQAGGSLRLSCAASGSIFLYYTMGWYRQEPGKERELVAAITWSGASTYYADSVKGRFTISRDNAKNTVYLQMNSLKPEDTAVYYCATRYRYRYWGQGTQVTVSS”, the “polyreactivity (PSR sort gate)” value was “high polyreactivity”.

As to “QVQLVESGGGLVQAGGSLRLSCAASGSIFNANAMGWYRQAPGKERELVAGIRSGSSTNYADSEKGRFTISRDNAKNTVYLQMNSLKPEDTAVYYCATEGYWVYGFDDEYWGQGTQVTVSS”, the “polyreactivity (PSR sort gate)” value was “low polyreactivity”.

For “QVQLVESGGGLVQAGGSLRLSCAASGSIFNAYDMGWYRQAPGKERELVAGISSSDSTYYADSVKGRFTISRDNAKNTVYLQMNSLKPEDTAVYYCAADPVFAAAYIHLYGIYDSWGQGTQVTVSS”, the “polyreactivity (PSR sort gate)” value was “low polyreactivity”.

For the sequence “QVQLVESGGGLVQAGGSLRLSCAASGSIFNDYAMGWYRQAPGKERELVAAITSSDGRTFYADSVKGRFTISRDNAKNTVYLQMNSLKPEDTAVYYCAAEWTSRYSTYEYWGQGTQVTVSS”, the “polyreactivity (PSR sort gate)” value is reported as “low polyreactivity”.

In the case of “QVQLVESGGGLVQAGGSLRLSCAASGSIFNENPMGSYRQAPGKERELVAVITHRTGSTYYADSVKGRFTISRDNAKYTFYLQLTSLTPEDTAVYYCATRTRRNRYRGGEYDYWGQGTQVTVSS”, the “polyreactivity (PSR sort gate)” value is “low polyreactivity”.

For the sequence “QVQLVESGGGLVQAGGSLRLSCAASGSIFNGNAMGWYRQAPGKERELVARITSGSSTYYADSVKGRFTISRDNAKNTVYLQMNSLKPEDTAVYYCAAVYGRYISYRWRSLYDYWGQGTQVTVSS”, the “polyreactivity (PSR sort gate)” value was “high polyreactivity”.

Turning to “QVQLVESGGGLVQAGGSLRLSCAASGSIFNGYDMGWYRQAPGKERELVAAISLSGDSTYYADSVKGRFTISRDYAKKTVYLQMNSLKPEDTAVYYCAAADYFRSYWGQGTQVTVSS”, the “polyreactivity (PSR sort gate)” value was “low polyreactivity”.

As for “QVQLVESGGGLVQAGGSLRLSCAASGSIFNINAMGWYRQAPGKERELVAAISKRGGSTYYADSVKGRFTISRDNAKNTVYLQLNSLKPEDTAVYYCAADLTGVDYDYWGQGTQVTVSS”, the “polyreactivity (PSR sort gate)” value is on record as “high polyreactivity”.

Regarding “QVQLVESGGGLVQAGGSLRLSCAASGSIFNLYAMGWYRQAPGKERELVAAIRWSGGSTYYADSVKGRFTISRDNAKNTVYLKMKSMKPEDTAVYYCNAEWKSYRVPKFEYWGQGTQVTVSS”, the “polyreactivity (PSR sort gate)” value is “low polyreactivity”.

Turning to “QVQLVESGGGLVQAGGSLRLSCAASGSIFNLYAMGWYRQAPGKERELVAGIRWSGGRTYYADSVKGRFTISRDNAKNTVYLQMNSLKPEDTAVYYCNAGGYLSWWNDYDYWGQGTQVTVSS”, the “polyreactivity (PSR sort gate)” value was “high polyreactivity”.

As for “QVQLVESGGGLVQAGGSLRLSCAASGSIFNLYAMGWYRQAPGKERELVATITWSGGSTYYADSVKGRFTISRDNAKNTVYLQMNSLKPEDTAVYYCAATALEWYPAVYNQYYYWGQGTQVTVSS”, the “polyreactivity (PSR sort gate)” value is on record as “low polyreactivity”.

For “QVQLVESGGGLVQAGGSLRLSCAASGSIFNPYVMGWYRQAPGKERELVAAISSSGGRTYYADSVKGRFTLSRDNAKNTVDFQMNSLKPEDTAVYYCAAKPRQGYDYWGQGTQVTVSS”, the “polyreactivity (PSR sort gate)” value was “high polyreactivity”.

As to “QVQLVESGGGLVQAGGSLRLSCAASGSIFNRNAMGWYRQAPGKERELVATITRNGGRTYYADSVKGRFTISRDNAKNTVYLQMNSLKPEDTAVYYCNAVRQRLRPGNLFDLDYWGQGTQVTVSS”, the “polyreactivity (PSR sort gate)” value is “low polyreactivity”.

With “QVQLVESGGGLVQAGGSLRLSCAASGSIFNRYSMGWYRQEPGKERELVASIRGTGSTYYADSVKGRFTISRDNAKNTVYLQMNSLKPEDTAVDYCAARPGYLYSKYNYWGQGTQVTVSS”, the “polyreactivity (PSR sort gate)” value is recorded as “high polyreactivity”.

For the sequence “QVQLVESGGGLVQAGGSLRLSCAASGSIFNSYAMGWYRQAPGKERELVAAISSGGGRTYYAVSVKGRFKISRDNAKNTVYLQMNSLKPEDTAVYYCAKYYRAFIRDYNYWGQGTQVTVSS”, the “polyreactivity (PSR sort gate)” value is recorded as “high polyreactivity”.

With “QVQLVESGGGLVQAGGSLRLSCAASGSIFNTYAMGWYRQAPGKERELVAAITWSGGSTYYADSVKGRFTISRDNAKNTVYLQMNSLKPEDTAVYYCAARQRRQSYWGQGTQVTVSS”, the “polyreactivity (PSR sort gate)” value is “high polyreactivity”.

As for “QVQLVESGGGLVQAGGSLRLSCAASGSIFNVYAMGWYRQAPGKERELVAAISDGDGSTFYADSVKGRFTISRDNAKNTVYLQMNSLKPEDTAVYYCAKDYRWDRKFDYWGQGTQVTVSS”, the “polyreactivity (PSR sort gate)” value is “low polyreactivity”.

As for “QVQLVESGGGLVQAGGSLRLSCAASGSIFNYNAMGWYRPAPGKERELVAALNSGGSTNYADSVKGRFTISRDNAKNTVYLQMNSLKPEDPAVYYCAADNYSQGVPYDYWGQGTQVTVSS”, the “polyreactivity (PSR sort gate)” value is “low polyreactivity”.

For the sequence “QVQLVESGGGLVQAGGSLRLSCAASGSIFNYTMGWYRQGPAQERQLVAVISRSGGRTYYADSVKGRFTISRDNAKNTVYLQMNSLKPEDTAVYYCATDGHNGYYGRYDYWGHGTQVTVSS”, the “polyreactivity (PSR sort gate)” value is “high polyreactivity”.
